Read-outs that look alike come from different tables or passages of the source.
T1: Zur(Zn) D49A Cy5-C113 (Escherichia coli, UniProt P0AC51 1-171, C17S;D49A;C152S;C158S)
T1 sequence: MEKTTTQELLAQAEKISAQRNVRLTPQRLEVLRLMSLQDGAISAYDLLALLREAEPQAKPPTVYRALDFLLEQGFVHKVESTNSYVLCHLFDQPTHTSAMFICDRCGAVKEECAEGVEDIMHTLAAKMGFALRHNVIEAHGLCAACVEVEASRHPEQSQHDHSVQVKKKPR

T2: Zur(Zn) Cy5-C158 (Escherichia coli, UniProt P0AC51 1-171, C17S;C113S;C152S)
T2 sequence: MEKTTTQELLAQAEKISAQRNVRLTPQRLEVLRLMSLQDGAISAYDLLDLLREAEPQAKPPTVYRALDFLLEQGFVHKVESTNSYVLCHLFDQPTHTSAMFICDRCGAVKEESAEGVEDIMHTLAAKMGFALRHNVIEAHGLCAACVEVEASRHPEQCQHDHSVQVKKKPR

T3: Zur(Zn) Cy5-C113 (Escherichia coli, UniProt P0AC51 1-171, C17S;C152S;C158S)
T3 sequence: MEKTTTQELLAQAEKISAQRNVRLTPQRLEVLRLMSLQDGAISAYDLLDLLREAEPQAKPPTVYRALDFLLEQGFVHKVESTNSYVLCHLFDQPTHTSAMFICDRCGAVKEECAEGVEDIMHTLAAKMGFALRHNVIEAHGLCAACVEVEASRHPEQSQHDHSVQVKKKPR

B1: 22-bp truncated znuCB DNA (one dyad) (dsDNA)
DNA 1: AGAAGTGTGATATTATAACATT
DNA 2: AATGTTATAATATCACACTTCT
B2: 31-bp znuCB promoter DNA (dsDNA)
DNA 1: AGAAGTGTGATATTATAACATTTCATGACTA
DNA 2: TAGTCATGAAATGTTATAATATCACACTTCT

Experiments:
Assay in all cases: smFRET
Zur(Zn) D49A Cy5-C113 [1] = biological target: T1, Zur(Zn) D49A Cy5-C113
Zur(Zn) Cy5-C158 = biological target: T2, Zur(Zn) Cy5-C158
Zur(Zn) Cy5-C113 [2] = biological target: T3, Zur(Zn) Cy5-C113
Zur(Zn) Cy5-C113 [3] = biological target: T3, Zur(Zn) Cy5-C113; remark: listed apart in the source
Zur(Zn) D49A Cy5-C113 [4] = biological target: T1, Zur(Zn) D49A Cy5-C113; remark: listed apart in the source

Binder | binding result (Zur(Zn) D49A Cy5-C113 [1]) | binding result (Zur(Zn) Cy5-C158) | binding result (Zur(Zn) Cy5-C113 [2]) | binding result (Zur(Zn) Cy5-C113 [3]) | binding result (Zur(Zn) D49A Cy5-C113 [4])
B1 | binds | binds | binds | – | –
B2 | – | – | – | binds | binds

— publication PMC11618457
